# Results reported in US20140234868A1, “USE FOR GLYCOLIPOPROTEIN GINTONIN, ISOLATED AND IDENTIFIED FROM GINSENG, AS A NATURAL MEDICAL-PLANT DERIVED LIGAND” (KONKUK UNIVERSITY INDUSTRIAL COOPERATION CORP., priority 2011, published 2014).
# B1: gintonin: ginseng-derived glycolipoprotein; structural protein of ginseng major latex-like protein (MLP151) and ribonuclease-like storage proteins; crude gintonin used in tests (protein)
# chain 1: MGLTGKLICQTGIKSDGDVFHELFGTRPHHVPNITPANIQGCDLHEGEFGKVGSVVIWNYSIDGNAMIAKEEIVAIDEEDKSVTFKVVEGHLFEEFKSIVFSVHVDTKGEDNLVTWSIDYEKLNESVKDPTSYLDFLLSVTRDIEAHHLPK
# chain 2: RSDYPWAMFALRLQWPAGFCEVNNACDTKSLLNTFTIHGLYPYNAKGTPALYCDGTAFDVNSVSDFLAEMHLAWPSHETNTEDIQFWEHEWKKHGRCSEALLKQTDYFRTALAFRKAFDIVGLLNQEGIYPNNDLYRPKMIKEAIKKHLNAVPEIDFTKNENSEYVLTDINVCVNQQATRFVDCPTDDATDDYRLKFVRLPSKMKFADPRTNSII
# What was measured:
# [1] = tested on: GPR87, GPR40, GPR41, GPR43 and GPR120; assay: Intracellular free Ca2+ in B103 cells expressing other orphan GPCRs and fatty acid receptors; type: cell-based; settings: B103 cells expressing the other receptors (GPR87, GPR40, GPR41, GPR43, GPR120)
# From the text: Optionally, the method may further comprise (8) pre-treating the suspended B103 cells with LPA receptor antagonists and LPA receptor-mediated signaling-relevant drugs (e.g., pertussis toxin, PLC inhibitors, IP3 receptor antagonists) to examine whether the cells decrease or increase in intracellular free Ca^2+, prior to treatment with gintonin; (9) performing site-directed mutagenesis to identify an amino acid of LPA receptors with which gintonin interact to activate the LPA; and (10) examining whether gintonin activates orphan GPCRs including GPR35 and GPR87, and free fatty acid GPCRs including GPR40, GPR41, GPR43 and GPR120, all known for activation by LPA.
# In addition, GPR35 (Oka et al., Biochem Biophys Res Commun. 395, 232-237, 2010) and GPR87 (Tabata et al., Biochem Biophys Res Commun. 363, 861-866, 2007), both known as orphan GPCRs reacting with LPA, and GPR40, GPR41, GPR43 and GPR120 (Hirasawa et al., Biol Pharm Bull. 31, 1847-1851, 2008), all known as fatty acid receptors reacting with free fatty acids, were expressed in B103 cells when gintonin activity was tested.
# [2] = tested on: mutant NMDA receptor (S1308A); assay: Gintonin-induced activation of mutant NMDA receptor S1308A in oocytes; type: cell-based; settings: mutant S1308A (PKC phosphorylation site)
# Method: Two-electrode voltage-clamp recordings were obtained from individual oocytes placed in a small Plexiglas net chamber (5 ml). Electrophysiological experiments were performed using microelectrodes filled with 3 M KCl (resistance of 0.2-0.7 MΩ) and an Oocyte Clamp amplifier (OC-725C; Warner Instrument, Hamden, Conn.). For physiological recordings of NMDA receptor activity, oocytes were first perfused with Mg^2+-free ND96 (mM: 96 NaOH, 2 KOH, 0.3 CaCl2, 5 HEPES pH 7.6 with methanesulfonic acid). Then, the oocytes were clamped at −60 mV holding potential, followed by recoding NMDA currents (induced by administering […]) (Zheng et al., J Neurosci. 17, 8676-8686, 1997; Chang and Kuo, J Neurosci. 28, 1546-1556, 2008).
# Thus, it is understood that gintonin stimulates PKC to phosphorylate the NMDA receptor at a specific site (S1308), and thus that gintonin-induced NMDA receptor activation is associated with PKC activity.
# [3] = tested on: mice; assay: Passive avoidance test, scopolamine-caused long-term memory impairment; type: in vivo, mouse
# Method: ICR male mice (25-28 g), purchased from Oriental Bio (Seoul, Korea), were bred according to the guideline of the Institutional Animal Care and Use Committee of Konkuk University, and subjected to passive avoidance test to examine memory maintenance impairment and the protection of gintonin against memory impairment according to the method of Yang et al. (Yang et al., Biol Pharm Bull 32, 1710-1715, 2009).
# A passive avoidance test was performed in a training chamber which was divided into two compartments (20×20×20 cm in size, each) separated by an automatically moving guillotine door (5×5 cm): one compartment was lighted while the other remained dark where metal rods installed in a lattice pattern on the bottom so as to deliver an electrical foot shock (Gemini Avoidance System, San Diego, USA).
# For an acquisition trial, a mouse was first placed in the lighted compartment, facing away from the dark compartment and allowed to explore for 10 sec. After 10 sec, the guillotine door was opened and the mouse was allowed to explore freely. When the mouse entered the dark compartment with all four paws according to its habit, the guillotine door was closed, and a footshock (0.5 mA, 3 sec duration) was delivered. The latency time to enter the dark compartment was recorded (from the time the door was lifted). 120 min before experimentation, gintonin (25, 50, 100 mg/kg, p.o) was administered while tacrine (10 mg/kg, p.o) was used as a positive control. Memory impairment was induced by injecting scopolamine (0.9 mg/kg, i.p.) 30 min after gintonin or tacrine administration (Araujo et al., Prog Neuropsycopharmcol Biol Psychiatry 29, 411-422, 2005). For a negative control, a physiological saline was used.
# 24 Hours after the learning session, an experiment was performed without injecting gintonin. The mouse was positioned again in the lighted compartment. After 10 sec of acclimation, the latency time to enter the dark compartment was recorded (from the time the door was lifted).
# [4] = tested on: mice; assay: Water maze test, scopolamine-caused spatial cognition impairment; type: in vivo, mouse
# Method: The Moths water maze set up contained a round water pool (45 cm deep with a diameter of 90 cm) filled with milk-mixed water (22±1° C.) to a depth of 30 cm. It was placed in a dark, sound-shielded room in which various visual cues were established. A white platform (6 cm in diameter, 29 cm in height) was inside the pool, with the top thereof 1 cm below the water surface in the center of one quadrant of the maze
# On day 1, the mice were trained to swim for 60 sec. Subsequently, the training was conducted four times a day for four consecutive days, with the platform inside the pool. When the mouse reached the platform, it was allowed to sit on the platform only for 10 sec. If the failed in reaching the platform within 60 sec, it was guided to reach the platform and stay for 10 sec thereon. Afterwards, the mouse was returned back to the home cage and allowed to dry its body under an IR lamp. The time interval between trials was 30 sec.
# The time to reach the hidden platform was recorded in each trial using a video camera-based Ethovision System (Nodulus, Wageningen, the Netherlands).
# For each training trial, the mouse was placed into the pool at one quadrant at positions which were different day by day. One day after the final training trial, the mouse was evaluated. In this regard, after the platform was removed, the mouse was allowed to swim for 60 sec in search for the platform, and the time to swim in the quadrant where the platform was located was recorded. Gintonin (25, 50, or 100 mg/kg, p.o.) in physiological saline was administered 1 hr before test, every day. Tacrine (10 mg/kg, p.o.) was used as a positive control. Memory impairment was induced by scopolamine (0.9 mg/kg i.p.) 30 min after gintonin administration. For a negative control, only physiological saline was administered.
# An examination was made of simple spatial reasoning. To this end, while the mice were allowed to swim in the absence of the rescue platform in the pool, the time period during which the mice swam in the quadrant where the rescue platform had been located was recorded.
# [5] = tested on: endogenous CaCC; settings: Xenopus oocytes; Pyo et al. 2011; cited from earlier work
molecule,measurement,setting,value
B1,increase of intracellular calcium level,[1],not act on the other receptors
same,gintonin-induced NMDA receptor activation,[2],a low level of gintonin-induced NMDA receptor activation
same,latency time,[3]; gintonin 25 mg/kg p.o. + scopolamine 0.9 mg/kg i.p.,78.24 ± 7.83 s
same,latency time,[3]; gintonin 50 mg/kg p.o. + scopolamine 0.9 mg/kg i.p.,169.22 ± 12.97 s
same,latency time,[3]; gintonin 100 mg/kg p.o. + scopolamine 0.9 mg/kg i.p.,183.43 ± 10.89 s
same,swimming time in the quadrant where the platform had been located,[4]; gintonin 25 mg/kg p.o. + scopolamine,21.33 ± 3.13 s
same,swimming time in the quadrant where the platform had been located,[4]; gintonin 50 mg/kg p.o. + scopolamine,24.53 ± 3.91 s
same,swimming time in the quadrant where the platform had been located,[4]; gintonin 100 mg/kg p.o. + scopolamine,25.17 ± 4.43 s
same,latent time to reach hidden platform,"[4]; gintonin 25, 50, 100 mg/kg p.o. + scopolamine, day 1 to day 4",reduce the latent time extended by scopolamine significantly and in a dose-dependent manner
same,CaCC activation,[5],activate endogenous Ca^2+-activated channel (CaCC)
